System: T1, peptide TRPM7p (Ac-RKKYRIVWKSIFRRFL)
T1 sequence: RKKYRIVWKSIFRRFL

TRPM7 kinase
fold increase in activity as compared to peptide MH-U: 30 to 35 fold increase in activity | phosphorylation at a single substrate concentration (100 µM): both peptides are efficiently phosphorylated by their respective kinases
